# Measured values from publication PMC5344419, “The structure of FKBP38 in complex with the MEEVD tetratricopeptide binding-motif of Hsp90” (PLoS ONE, 2017).
# B1: FKBP8 (FKBP^1-380), amino acids 1-380, lacking the C-terminal trans-membrane helix (domain or fragment, UniProt Q14318 1-380, looked up)
# chain: MASCAEPSEPSAPLPAGVPPLEDFEVLDGVEDAEGEEEEEEEEEEEDDLSELPPLEDMGQPPAEEAEQPGALAREFLAAMEPEPAPAPAPEEWLDILGNGLLRKKTLVPGPPGSSRPVKGQVVTVHLQTSLENGTRVQEEPELVFTLGDCDVIQALDLSVPLMDVGETAMVTADSKYCYGPQGRSPYIPPHAALCLEVTLKTAVDGPDLEMLTGQERVALANRKRECGNAHYQRADFVLAANSYDLAIKAITSSAKVDMTFEEEAQLLQLKVKCLNNLAASQLKLDHYRAALRSCSLVLEHQPDNIKALFRKGKVLAQQGEYSEAIPILRAALKLEPSNKTIHAELSKLVKKHAAQRSTETALYRKMLGNPSRLPAKCPG
# notes: FKBP8, amino acids 1-380, lacking the C-terminal trans-membrane helix; numbers count on full-length FKBP8 (Arg 184 is Arg 127 in FKBP38 numbering); Non-cleavable C-terminal His6 tag from pDMXV4; also called FKBP8 isoform; not shown: His6, C-terminal, kept
# What was measured:
# Details in all cases: both partners purified
# Full-length human Hsp90β = molecular target: T1, Full-length human Hsp90β (human, UniProt P08238 1-724); experiment: ITC; 700 to 800 μM FKBP construct injected into 50 μM Hsp90 or Hsp70 protein in the cell; ITC200; 20 mM Tris, 300 mM NaCl, 1 mM EDTA pH 7.5
# T1 construct: Hsp90β, human, full length; Expressed from pRSETA as a His-tagged fusion; also called intact Hsp90β
# [1] = molecular target: T2, Hsp90β^295-724, middle and C-terminal domain fragment of human Hsp90β (human, UniProt P08238 295-724); experiment: as above
# T2 construct: Hsp90β, human, residues 295-724 (middle and C-terminal domain, with the MEEVD motif); Expressed from pRSETA as a His-tagged fusion; also called Hsp90^295-724
# [2] = molecular target: B1; experiment: as above
# [3] = molecular target: B1; experiment: ITC; 2 mM peptide injected into 50 μM FKBP^1-380 in the cell; ITC200; 20 mM Tris, 300 mM NaCl, 1 mM EDTA pH 7.5
# T1 sequence (P08238 whole entry, the tested form may be a part): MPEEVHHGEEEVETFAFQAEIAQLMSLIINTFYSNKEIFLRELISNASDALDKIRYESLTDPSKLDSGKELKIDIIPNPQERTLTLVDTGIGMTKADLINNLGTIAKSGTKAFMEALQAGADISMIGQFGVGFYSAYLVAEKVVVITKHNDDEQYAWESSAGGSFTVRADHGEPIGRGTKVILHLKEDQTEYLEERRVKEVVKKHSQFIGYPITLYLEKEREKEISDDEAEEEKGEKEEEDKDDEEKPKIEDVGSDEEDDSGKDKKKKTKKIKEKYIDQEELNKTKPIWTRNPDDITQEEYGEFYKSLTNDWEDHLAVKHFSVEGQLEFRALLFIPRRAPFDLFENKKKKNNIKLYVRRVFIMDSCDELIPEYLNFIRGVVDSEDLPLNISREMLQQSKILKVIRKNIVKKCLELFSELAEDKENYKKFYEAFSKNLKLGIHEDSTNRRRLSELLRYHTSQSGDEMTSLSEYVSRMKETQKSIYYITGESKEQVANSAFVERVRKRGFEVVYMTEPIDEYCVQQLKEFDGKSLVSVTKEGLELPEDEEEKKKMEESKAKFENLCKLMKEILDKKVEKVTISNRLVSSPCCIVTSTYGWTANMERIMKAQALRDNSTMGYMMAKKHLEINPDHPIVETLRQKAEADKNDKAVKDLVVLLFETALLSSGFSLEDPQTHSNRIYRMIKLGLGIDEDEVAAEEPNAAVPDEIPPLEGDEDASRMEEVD
# T2 sequence (P08238 295-724): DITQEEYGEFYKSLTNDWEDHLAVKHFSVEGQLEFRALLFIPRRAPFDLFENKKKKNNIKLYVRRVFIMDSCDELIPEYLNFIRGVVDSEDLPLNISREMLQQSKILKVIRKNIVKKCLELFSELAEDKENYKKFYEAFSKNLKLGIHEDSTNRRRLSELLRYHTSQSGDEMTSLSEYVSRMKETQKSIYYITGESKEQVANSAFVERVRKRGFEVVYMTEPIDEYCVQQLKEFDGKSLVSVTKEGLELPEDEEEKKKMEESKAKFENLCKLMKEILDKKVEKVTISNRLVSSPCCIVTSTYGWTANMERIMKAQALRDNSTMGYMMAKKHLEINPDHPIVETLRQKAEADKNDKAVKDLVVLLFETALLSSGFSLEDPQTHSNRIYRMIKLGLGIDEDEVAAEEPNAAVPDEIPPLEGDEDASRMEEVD
Kd (Full-length human Hsp90β),stoichiometry N (Full-length human Hsp90β),Kd [2],Kd [3],Binder,other results
2.8 ± 0.1 µM,1,,,B1,Kd [1]: 6.4 ± 0.5 µM
,,8.3 ± 0.6 µM,,"Hsp90α^464-732, C-terminal domain of human Hsp90α (domain or fragment, Hsp90α, human, residues 464-732 (C-terminal domain); Expressed from p2E as a PreScission cleavable His-tagged fusion; also called C-terminal domain of Hsp90α) not shown",
,,2.3 ± 0.2 µM,,"Yeast C-terminal fragment of Hsp90 (yHsp90^546-709) (domain or fragment, Expressed from pRSETA as a His-tagged fusion; also called C-terminal domain of yeast Hsp90) not shown",
,,,64.5 ± 3.7 µM,EDASRMEEVD (the terminal ten amino-acid residues of Hsp90β) [Hsp90β EDASRMEEVD C-terminal peptide],
2.6 ± 0.2 µM,1,,,"FKBP38 isoform (FKBP^92-380), immunophilin and TPR domain (domain or fragment, UniProt Q14318 92-380, looked up, FKBP8, fragment 92-380 containing both the immunophilin (PPIase) and TPR domain; numbers count on full-length FKBP8; also called FKBP8^92-380; not shown: His6 (from the vector pDMXV4), C-terminal, kept) EWLDILGNGLLRKKTLVPGPPGSSRPVKGQVVTVHLQTSLENGTRVQEEPELVFTLGDCDVIQALDLSVPLMDVGETAMVTADSKYCYGPQGRSPYIPPHAALCLEVTLKTAVDGPDLEMLTGQERVALANRKRECGNAHYQRADFVLAANSYDLAIKAITSSAKVDMTFEEEAQLLQLKVKCLNNLAASQLKLDHYRAALRSCSLVLEHQPDNIKALFRKGKVLAQQGEYSEAIPILRAALKLEPSNKTIHAELSKLVKKHAAQRSTETALYRKMLGNPSRLPAKCPG",
,,,147 µM,GSGPTIEEVD (C-terminal peptide of human Hsp70) [Human Hsp70 GSGPTIEEVD C-terminal peptide],
